Measured values: patent publication US20050170504

Target: TmHU (HU protein) (Thermotoga maritima) (UniProt P36206)
Assay: SPR
Conditions: transition midpoint of Hill curve, 50 mM sodium phosphate pH 7.5, 100 mM NaCl

Chain of UniProt P36206 (P36206 other isoform, or with tags, fused parts or gaps): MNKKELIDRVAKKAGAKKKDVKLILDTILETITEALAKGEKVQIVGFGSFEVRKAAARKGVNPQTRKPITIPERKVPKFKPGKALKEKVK

Substance | Kd (Hill coefficient 1.3) | Kd (Hill coefficient 7.6)
23 bp dsDNA fragment | 0.073 µM | 
56 bp dsDNA fragment |  | 0.073 µM
